Earlier results in article PMC11084152, “Galf-Specific Neolectins: Towards Promising Diagnostic Tools” (International Journal of Molecular Sciences, 2024).

Design: method as in PMID 26148048
Conditions: β-D-Galf-substituted surface; read-out: functional affinity value

B1: hIntL-1: human intelectin-1, galactofuranosyl-binding lectin used as positive control (protein, UniProt Q8WWA0 19-298, looked up)
Intelectin-1: TDEANTYFKEWTCSSSPSLPRSCKEIKDECPSAFDGLYFLRTENGVIYQTFCDMTSGGGGWTLVASVHENDMRGKCTVGDRWSSQQGSKAVYPEGDGNWANYNTFGSAEAATSDDYKNPGYYDIQAKDLGIWHVPNKSPMQHWRNSSLLRYRTDTGFLQTLGHNLFGIYQKYPVKYGEGKCWTDNGPVIPVVYDFGDAQKTASYYSPYGQREFTAGFVQFRVFNNERAANALCAGMRVTGCNTEHHCIGGGGYFPEASPQQCGDFSGFDWSGYGTHVGYS
- Kd: 0.085 ± 0.014 µM
